According to patent publication US20240325555A1 (LANOVA MEDICINES, published 2024):
Residue numbers refer to the chain shown, from its start. Each block holds one binder with its values, some of them ahead of it.

What was measured:
[1] = target: T1, human LIV-1 (human, UniProt Q13433 29-755); assay: FACS, BT20/H_LIV-1 Low cells
T1 construct: whole, on cells; also called H-LIV1
T1 sequence (looked up): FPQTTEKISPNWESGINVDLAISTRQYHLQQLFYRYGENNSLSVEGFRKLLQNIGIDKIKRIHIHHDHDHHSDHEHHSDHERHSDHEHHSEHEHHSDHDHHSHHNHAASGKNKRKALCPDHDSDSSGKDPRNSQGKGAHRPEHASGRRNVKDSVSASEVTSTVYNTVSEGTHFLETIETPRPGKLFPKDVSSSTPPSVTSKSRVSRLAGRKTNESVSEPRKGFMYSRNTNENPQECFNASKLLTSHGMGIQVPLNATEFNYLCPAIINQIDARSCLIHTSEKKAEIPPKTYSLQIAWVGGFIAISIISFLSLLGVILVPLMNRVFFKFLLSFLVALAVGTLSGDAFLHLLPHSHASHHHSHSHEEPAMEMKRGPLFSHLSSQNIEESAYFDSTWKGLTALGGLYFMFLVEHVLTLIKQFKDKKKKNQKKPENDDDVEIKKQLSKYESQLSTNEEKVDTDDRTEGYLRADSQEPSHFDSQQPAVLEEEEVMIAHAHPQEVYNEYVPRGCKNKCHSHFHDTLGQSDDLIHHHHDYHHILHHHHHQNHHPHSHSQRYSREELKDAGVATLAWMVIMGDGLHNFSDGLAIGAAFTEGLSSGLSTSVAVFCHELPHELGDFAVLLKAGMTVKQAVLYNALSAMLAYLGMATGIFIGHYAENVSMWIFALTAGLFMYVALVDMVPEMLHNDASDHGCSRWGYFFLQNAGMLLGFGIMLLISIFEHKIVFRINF
Experimental: (§1) Cell based binding of ADC and naked of ADC on human LIV-1 expressing cells were assessed using flow cytometry. Briefly, HEK293/H_LIV-1, both low- and high-expressing H-LIV1-positive cell lines were incubated with ADC and naked of ADC (from 100 nM, 6 folds dilution, 8 points), respectively. After incubation at 4° C. for 60 minutes, the cells were washed with FACS buffer twice, then stained with fluorescent conjugated secondary antibody at 4° C. for 30 minutes. After that the cells were washed twice and analyzed by flow cytometry.

[2] = target: T1, human LIV-1; assay: FACS, HEK293/H_LIV-1 cells
Experimental: as §1

[3] = target: T1, human LIV-1; assay: FACS, BT20/H_LIV-1 High cells
Experimental: as §1

[4] = target: T1, human LIV-1; assay: cell-based or functional assay
[5] = target: T1, human LIV-1; assay: cell-based or functional assay; remark: listed apart in the source
[6] = target: T1, human LIV-1; assay: FACS, HEK293/H_LIV-1 cells; remark: listed apart in the source
Procedure, shortened: (§2)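 HEK293 cells over-expressing human or cyno LIV-1 incubated with chimeric Abs (from 100 nM, 5-fold dilutions, 8 points) for 60 min at 4 °C, then fluorescent secondary antibody 30 min at 4 °C; washes in 2% FBS/PBS. Binding read by flow cytometry; EC50 from the titration curve.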

[7] = target: T1, human LIV-1; assay: cell-based or functional assay; remark: listed apart in the source
[8] = target: T1, human LIV-1; assay: cell-based or functional assay; remark: listed apart in the source
[9] = target: cynomolgus LIV-1 (cynomolgus, UniProt A0A2K5WH46 30-741); assay: FACS, HEK293/Cyno_LIV-1 cells
Procedure, shortened: as §2

[10] = target: T1, human LIV-1; assay: cell-based or functional assay; remark: listed apart in the source

B1: 124H4D11.p2.z4-Eribulin (antibody, V domains shown)
VH: QVQLVQSGAEVVKPGASVKVSCKASGFNIKDYYMHWVRQAPGQGLEWIGWIDPENDDTEYDPKFQGRVTMTADTSTSTVYMELSSLRSEDTAVYYCAARYYAFDYWGQGTMVTVSS
VL: DVLMTQSPLSLPVTLGQPASISCRSSQSIVHSNANTYLEWYLQRPGQSPRLLIYKVSNRFSGVPDRFSGSGSGTDFTLKISRVEAEDVGVYYCFQGSQVPPTFGQGTKLEIK
modifications: Eribulin drug moiety conjugated; site and chain not stated
notes: Antibody-drug conjugate of 124H4D11.p2.z4; human gamma 1/kappa
EC50 [1]: 0.05 nM
Top (MFI) [1]: 3100 MFI
EC50 [2]: 0.1 nM
Top (MFI) [2]: 19400 MFI
EC50 [3]: 0.1 nM
Top (MFI) [3]: 19200 MFI
Min cell viability %, BT20/H_LIV-1 High [4]: 20.7%
Min cell viability %, BT20/H_LIV-1 Low [4]: 37.9%
Min cell viability %, HEK293/H_LIV-1 [4]: 21.5%

B2: 124H4D11.p2.z4-MMAE (antibody, V domains shown)
VH: B1 VH
VL: B1 VL
modifications: MMAE drug moiety conjugated; site and chain not stated
notes: as for B1
EC50 [1]: 0.07 nM
Top (MFI) [1]: 3420 MFI
EC50 [2]: 0.08 nM
Top (MFI) [2]: 20200 MFI
EC50 [3]: 0.11 nM
Top (MFI) [3]: 20000 MFI
Min cell viability %, BT20/H_LIV-1 High [4]: 18.6%
Min cell viability %, BT20/H_LIV-1 Low [4]: 40.3%
Min cell viability %, HEK293/H_LIV-1 [4]: 15.8%

B3: 5D6B10.z7-Eribulin (antibody, V domains shown)
VH: QVQLVQSGGGVVQPGRSLRLSCTVSGFSLTTYGIHWVRQSPGKGLEWLGVIWTGGTTDYNAAFISRLTISKDNSKSTVYFQMNSLQAEDTAIYYCARGPSSYWGQGTLVTVSS
VL: EIVMTQSPATLSVSPGERATLSCKASQNVDTNVVWYQQKPGQSPRALIYSASYRYSGVPARFSGSGSGTEFTLTISSLQSEDFAVYFCQQYNNYPWTFGQGTKVEIK
modifications: Eribulin drug moiety conjugated; site and chain not stated
notes: Antibody-drug conjugate of 5D6B10.z7; human gamma 1/kappa
EC50 [1]: 0.5 nM
Top (MFI) [1]: 37200 MFI
EC50 [2]: 0.47 nM
Top (MFI) [2]: 98700 MFI
EC50 [3]: 0.87 nM
Top (MFI) [3]: 154000 MFI
Min cell viability %, BT20/H_LIV-1 High [4]: 31.5%
Min cell viability %, BT20/H_LIV-1 Low [4]: 42.9%
Min cell viability %, HEK293/H_LIV-1 [4]: 21.2%

B4: 5D6B10.z7-MMAE (antibody, V domains shown)
VH: B3 VH
VL: B3 VL
modifications: MMAE drug moiety conjugated; site and chain not stated
notes: as for B3
EC50 [1]: 0.5 nM
Top (MFI) [1]: 35300 MFI
EC50 [2]: 0.51 nM
Top (MFI) [2]: 96400 MFI
EC50 [3]: 0.98 nM
Top (MFI) [3]: 149000 MFI
Min cell viability %, BT20/H_LIV-1 High [4]: 28.4%
Min cell viability %, BT20/H_LIV-1 Low [4]: 43.5%
Min cell viability %, HEK293/H_LIV-1 [4]: 15%

B6: LM-001-LM-D03 (antibody, V domains shown)
VH: EVQLVQSGAEVKKPGASVKVSCKASGYTFTSYWIHWVRQAPGQGLEWMGTIYPGDADTRSTQKFKDRVTMTADTSTSTVYMELSSLRSEDTAVYYCARSLIHDDYDKYYFDYWGQGTTVTVSS
VL: DIQMTQSPSSLSASVGDRVTITCKARQDINKYIAWYQQKPGKAPKLLIHYTSILQPGIPSRFSGSGSGRDYTFTISSLQPEDIATYYCLQYDYFFTFGGGTKVEIK
modifications: LM-D03 drug-linker conjugated; site and chain not stated
Bottom (% viability), BT20/H_LIV1-High expression [5]: 19.5%
Bottom (% viability), BT20/H_LIV1-Low expression [5]: 46.9%

B7: LM-001-DXD (antibody, V domains shown)
VH: B6 VH
VL: B6 VL
modifications: DXD drug moiety conjugated; site and chain not stated
Bottom (% viability), BT20/H_LIV1-High expression [5]: 43.7%
Bottom (% viability), BT20/H_LIV1-Low expression [5]: 58.9%

B8: LM-001-LM-D01 (antibody, V domains shown)
VH: B6 VH
VL: B6 VL
modifications: LM-D01 drug-linker conjugated; site and chain not stated
Bottom (% viability), BT20/H_LIV1-High expression [5]: 37.9%
Bottom (% viability), BT20/H_LIV1-Low expression [5]: 48.4%

Further lines, with some results ahead:

EC50 [1]: 1.14 nM
Top (MFI) [1]: 3620 MFI
EC50 [2]: 0.55 nM
Top (MFI) [2]: 18800 MFI
EC50 [3]: 1.2 nM
Top (MFI) [3]: 21000 MFI
B5: 290F10G10.z2-Eribulin (antibody, V domains shown)
VH: B6 VH
VL: B6 VL
modifications: Eribulin drug moiety conjugated; site and chain not stated
Min cell viability %, BT20/H_LIV-1 High [4]: 17.6%
Min cell viability %, BT20/H_LIV-1 Low [4]: 38.4%
Min cell viability %, HEK293/H_LIV-1 [4]: 18.4%

EC50 [1]: 0.68 nM
Top (MFI) [1]: 3570 MFI
EC50 [2]: 0.34 nM
Top (MFI) [2]: 19100 MFI
EC50 [3]: 0.66 nM
Top (MFI) [3]: 20800 MFI
B9: 290F10G10.z2-MMAE (antibody, V domains shown)
VH: B6 VH
VL: B6 VL
modifications: MMAE drug moiety conjugated; site and chain not stated
notes: also called LM-001-MMAE
Bottom (% viability), BT20/H_LIV1-High expression [5]: 29.1%
Bottom (% viability), BT20/H_LIV1-Low expression [5]: 46.8%
Min cell viability %, BT20/H_LIV-1 High [4]: 14.7%
Min cell viability %, BT20/H_LIV-1 Low [4]: 37.9%
Min cell viability %, HEK293/H_LIV-1 [4]: 15.3%

EC50 [6]: 0.32 nM
Top (MFI) [6]: 8090 MFI
Internalization EC50 [8]: 4.6 nM
Internalization Top (RFU) [8]: 448000 RFU
EC50 [9]: 0.55 nM
Top (MFI) [9]: 2490 MFI
ADCC reporter EC50 [10]: 1.1 nM
ADCC reporter Top (RFU) [10]: 47800 RFU
B10: 286B5E6 (antibody, V domains shown)
VH: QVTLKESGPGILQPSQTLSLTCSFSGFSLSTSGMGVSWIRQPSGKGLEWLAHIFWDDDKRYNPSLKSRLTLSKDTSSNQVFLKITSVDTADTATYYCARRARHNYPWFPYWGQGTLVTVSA
VL: DIVLTQSPASLAVSLGQRATISCKASQSVDYDGDSYMNWYQQKPGQPPKLLIYAASNLESGIPARFSGSGSGTDFTLNIHPVEEEDAATYYCQQSNEGPYTFGGGTKLEIK
notes: Tested as chimeric antibody
Cell viability(%) [7]: 4.88%
Cytotoxicity IC50 [7]: 1.39 nM

EC50 [6]: 0.45 nM
Top (MFI) [6]: 8100 MFI
Internalization EC50 [8]: 6.1 nM
Internalization Top (RFU) [8]: 495000 RFU
EC50 [9]: 0.98 nM
Top (MFI) [9]: 2250 MFI
ADCC reporter EC50 [10]: 7.9 nM
ADCC reporter Top (RFU) [10]: 133000 RFU
B11: 293F10B6 (antibody, V domains shown)
VH: QVTLKESGPGMLQPSQTLNLTCSFSGFSLNTSGMGVSWIRQPSGKGLEWLAHIFWDDDKRYNPSLKSRLTISKDVSSNQVFLKITSVDTADTATYFCARRARNNYPWFPYWGQGTLVTVSA
VL: B10 VL with E59D, V82M, E84D, A87V, E97G, G98A, Y100F
notes: Tested as chimeric antibody
Cell viability(%) [7]: 3.41%
Cytotoxicity IC50 [7]: 1.46 nM
